Results as given in patent publication US11224632B2 (priority 2016, dated 2022).
“Also recorded” adds a separate entry of the source. Where no end group is shown, it is not given here. [ ]: non-standard residue; d: D form.

Legend:
CaV2.2 channel = CaV2.2 channel (Homo sapiens, UniProt Q00975); format: cell-based
CaV1.2 channel = biological target: T1, CaV1.2 channel (Oryctolagus cuniculus, UniProt P15381); assay: whole cell patch clamp of CaV1.2-mediated ion currents in tsA201 cells co-expressing CaV1.2 and CaVbeta2e; format: cell-based, rabbit; conditions: 150 nM peptide
T1 construct: The coding regions of the two different alpha1 pore-forming units (CaValpha1) of the voltage-dependent calcium channel were fused in frame; expressed in transfected cells; host or cells: tsA201 cells, transient co-transfection
T1 sequence (P15381 whole entry, the tested form may be a part): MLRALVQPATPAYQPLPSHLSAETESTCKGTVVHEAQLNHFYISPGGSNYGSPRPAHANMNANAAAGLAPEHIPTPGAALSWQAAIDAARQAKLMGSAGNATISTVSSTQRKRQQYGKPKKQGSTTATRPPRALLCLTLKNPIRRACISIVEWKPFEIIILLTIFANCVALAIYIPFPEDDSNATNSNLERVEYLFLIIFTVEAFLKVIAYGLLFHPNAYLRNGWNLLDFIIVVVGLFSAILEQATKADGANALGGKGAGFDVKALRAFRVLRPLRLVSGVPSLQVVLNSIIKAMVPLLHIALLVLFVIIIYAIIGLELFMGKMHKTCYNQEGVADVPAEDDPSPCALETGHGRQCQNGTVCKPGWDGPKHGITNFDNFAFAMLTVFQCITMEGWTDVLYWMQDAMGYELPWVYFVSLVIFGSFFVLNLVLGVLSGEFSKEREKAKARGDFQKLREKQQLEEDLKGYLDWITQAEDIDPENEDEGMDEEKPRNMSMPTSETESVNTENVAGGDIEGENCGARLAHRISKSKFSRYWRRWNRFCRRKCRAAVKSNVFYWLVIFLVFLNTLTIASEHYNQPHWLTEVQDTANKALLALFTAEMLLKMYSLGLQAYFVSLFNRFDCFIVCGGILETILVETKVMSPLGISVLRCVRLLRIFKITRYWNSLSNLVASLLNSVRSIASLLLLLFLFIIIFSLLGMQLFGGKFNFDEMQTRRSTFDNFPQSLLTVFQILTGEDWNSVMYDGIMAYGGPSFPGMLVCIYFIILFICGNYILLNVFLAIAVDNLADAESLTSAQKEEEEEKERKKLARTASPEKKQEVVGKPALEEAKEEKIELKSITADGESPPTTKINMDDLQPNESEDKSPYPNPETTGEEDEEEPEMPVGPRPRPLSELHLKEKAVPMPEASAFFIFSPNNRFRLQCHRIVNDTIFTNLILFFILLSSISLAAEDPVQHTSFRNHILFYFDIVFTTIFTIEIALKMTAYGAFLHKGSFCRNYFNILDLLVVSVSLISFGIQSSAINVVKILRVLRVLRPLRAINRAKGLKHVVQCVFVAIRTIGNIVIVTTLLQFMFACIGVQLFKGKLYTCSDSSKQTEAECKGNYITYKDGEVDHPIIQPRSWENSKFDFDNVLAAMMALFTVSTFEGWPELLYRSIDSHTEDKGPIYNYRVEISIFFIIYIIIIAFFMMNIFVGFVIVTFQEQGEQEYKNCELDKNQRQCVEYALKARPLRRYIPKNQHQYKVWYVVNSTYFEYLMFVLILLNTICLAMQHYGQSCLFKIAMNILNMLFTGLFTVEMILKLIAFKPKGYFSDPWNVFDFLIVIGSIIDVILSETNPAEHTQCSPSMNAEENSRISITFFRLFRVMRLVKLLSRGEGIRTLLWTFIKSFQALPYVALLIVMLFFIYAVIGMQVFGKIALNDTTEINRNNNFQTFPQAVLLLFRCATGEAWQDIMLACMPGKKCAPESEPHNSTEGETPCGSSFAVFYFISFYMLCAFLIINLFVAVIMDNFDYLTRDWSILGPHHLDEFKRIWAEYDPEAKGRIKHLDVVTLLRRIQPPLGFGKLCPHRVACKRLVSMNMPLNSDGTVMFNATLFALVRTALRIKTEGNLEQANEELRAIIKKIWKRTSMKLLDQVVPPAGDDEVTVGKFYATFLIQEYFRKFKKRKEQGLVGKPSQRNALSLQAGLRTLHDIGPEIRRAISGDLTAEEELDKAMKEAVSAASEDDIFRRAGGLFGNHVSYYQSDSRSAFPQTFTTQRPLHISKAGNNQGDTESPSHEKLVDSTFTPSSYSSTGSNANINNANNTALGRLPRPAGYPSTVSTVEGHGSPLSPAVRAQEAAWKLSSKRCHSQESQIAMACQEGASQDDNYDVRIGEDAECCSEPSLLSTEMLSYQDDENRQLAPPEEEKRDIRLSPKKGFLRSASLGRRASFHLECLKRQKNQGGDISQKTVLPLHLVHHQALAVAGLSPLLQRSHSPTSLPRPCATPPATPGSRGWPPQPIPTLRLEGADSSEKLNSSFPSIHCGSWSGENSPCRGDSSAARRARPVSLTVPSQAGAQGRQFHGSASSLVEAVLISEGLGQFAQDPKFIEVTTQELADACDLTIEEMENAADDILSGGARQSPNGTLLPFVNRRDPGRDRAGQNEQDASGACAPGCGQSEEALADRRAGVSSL
T1 sequence (Q8VGC3 1-611 isoform Q8VGC3-4 partner): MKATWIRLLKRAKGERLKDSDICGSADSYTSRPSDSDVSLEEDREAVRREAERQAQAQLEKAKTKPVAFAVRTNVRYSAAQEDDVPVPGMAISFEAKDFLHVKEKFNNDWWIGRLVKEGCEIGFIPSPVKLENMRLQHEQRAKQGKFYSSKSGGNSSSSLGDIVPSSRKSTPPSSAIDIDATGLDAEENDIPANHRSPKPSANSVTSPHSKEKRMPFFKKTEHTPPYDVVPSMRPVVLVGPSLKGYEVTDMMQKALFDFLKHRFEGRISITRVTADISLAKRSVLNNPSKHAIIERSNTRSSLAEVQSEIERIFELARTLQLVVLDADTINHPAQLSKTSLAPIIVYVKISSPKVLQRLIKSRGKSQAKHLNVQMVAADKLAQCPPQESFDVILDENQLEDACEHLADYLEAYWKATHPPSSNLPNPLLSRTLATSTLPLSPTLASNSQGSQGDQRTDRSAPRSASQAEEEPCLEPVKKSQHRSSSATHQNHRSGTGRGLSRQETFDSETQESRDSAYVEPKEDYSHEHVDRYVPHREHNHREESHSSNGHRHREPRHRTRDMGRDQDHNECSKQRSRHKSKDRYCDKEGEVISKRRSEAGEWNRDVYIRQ

Sequence of CaV2.2 channel (Q00975 whole entry, looked up): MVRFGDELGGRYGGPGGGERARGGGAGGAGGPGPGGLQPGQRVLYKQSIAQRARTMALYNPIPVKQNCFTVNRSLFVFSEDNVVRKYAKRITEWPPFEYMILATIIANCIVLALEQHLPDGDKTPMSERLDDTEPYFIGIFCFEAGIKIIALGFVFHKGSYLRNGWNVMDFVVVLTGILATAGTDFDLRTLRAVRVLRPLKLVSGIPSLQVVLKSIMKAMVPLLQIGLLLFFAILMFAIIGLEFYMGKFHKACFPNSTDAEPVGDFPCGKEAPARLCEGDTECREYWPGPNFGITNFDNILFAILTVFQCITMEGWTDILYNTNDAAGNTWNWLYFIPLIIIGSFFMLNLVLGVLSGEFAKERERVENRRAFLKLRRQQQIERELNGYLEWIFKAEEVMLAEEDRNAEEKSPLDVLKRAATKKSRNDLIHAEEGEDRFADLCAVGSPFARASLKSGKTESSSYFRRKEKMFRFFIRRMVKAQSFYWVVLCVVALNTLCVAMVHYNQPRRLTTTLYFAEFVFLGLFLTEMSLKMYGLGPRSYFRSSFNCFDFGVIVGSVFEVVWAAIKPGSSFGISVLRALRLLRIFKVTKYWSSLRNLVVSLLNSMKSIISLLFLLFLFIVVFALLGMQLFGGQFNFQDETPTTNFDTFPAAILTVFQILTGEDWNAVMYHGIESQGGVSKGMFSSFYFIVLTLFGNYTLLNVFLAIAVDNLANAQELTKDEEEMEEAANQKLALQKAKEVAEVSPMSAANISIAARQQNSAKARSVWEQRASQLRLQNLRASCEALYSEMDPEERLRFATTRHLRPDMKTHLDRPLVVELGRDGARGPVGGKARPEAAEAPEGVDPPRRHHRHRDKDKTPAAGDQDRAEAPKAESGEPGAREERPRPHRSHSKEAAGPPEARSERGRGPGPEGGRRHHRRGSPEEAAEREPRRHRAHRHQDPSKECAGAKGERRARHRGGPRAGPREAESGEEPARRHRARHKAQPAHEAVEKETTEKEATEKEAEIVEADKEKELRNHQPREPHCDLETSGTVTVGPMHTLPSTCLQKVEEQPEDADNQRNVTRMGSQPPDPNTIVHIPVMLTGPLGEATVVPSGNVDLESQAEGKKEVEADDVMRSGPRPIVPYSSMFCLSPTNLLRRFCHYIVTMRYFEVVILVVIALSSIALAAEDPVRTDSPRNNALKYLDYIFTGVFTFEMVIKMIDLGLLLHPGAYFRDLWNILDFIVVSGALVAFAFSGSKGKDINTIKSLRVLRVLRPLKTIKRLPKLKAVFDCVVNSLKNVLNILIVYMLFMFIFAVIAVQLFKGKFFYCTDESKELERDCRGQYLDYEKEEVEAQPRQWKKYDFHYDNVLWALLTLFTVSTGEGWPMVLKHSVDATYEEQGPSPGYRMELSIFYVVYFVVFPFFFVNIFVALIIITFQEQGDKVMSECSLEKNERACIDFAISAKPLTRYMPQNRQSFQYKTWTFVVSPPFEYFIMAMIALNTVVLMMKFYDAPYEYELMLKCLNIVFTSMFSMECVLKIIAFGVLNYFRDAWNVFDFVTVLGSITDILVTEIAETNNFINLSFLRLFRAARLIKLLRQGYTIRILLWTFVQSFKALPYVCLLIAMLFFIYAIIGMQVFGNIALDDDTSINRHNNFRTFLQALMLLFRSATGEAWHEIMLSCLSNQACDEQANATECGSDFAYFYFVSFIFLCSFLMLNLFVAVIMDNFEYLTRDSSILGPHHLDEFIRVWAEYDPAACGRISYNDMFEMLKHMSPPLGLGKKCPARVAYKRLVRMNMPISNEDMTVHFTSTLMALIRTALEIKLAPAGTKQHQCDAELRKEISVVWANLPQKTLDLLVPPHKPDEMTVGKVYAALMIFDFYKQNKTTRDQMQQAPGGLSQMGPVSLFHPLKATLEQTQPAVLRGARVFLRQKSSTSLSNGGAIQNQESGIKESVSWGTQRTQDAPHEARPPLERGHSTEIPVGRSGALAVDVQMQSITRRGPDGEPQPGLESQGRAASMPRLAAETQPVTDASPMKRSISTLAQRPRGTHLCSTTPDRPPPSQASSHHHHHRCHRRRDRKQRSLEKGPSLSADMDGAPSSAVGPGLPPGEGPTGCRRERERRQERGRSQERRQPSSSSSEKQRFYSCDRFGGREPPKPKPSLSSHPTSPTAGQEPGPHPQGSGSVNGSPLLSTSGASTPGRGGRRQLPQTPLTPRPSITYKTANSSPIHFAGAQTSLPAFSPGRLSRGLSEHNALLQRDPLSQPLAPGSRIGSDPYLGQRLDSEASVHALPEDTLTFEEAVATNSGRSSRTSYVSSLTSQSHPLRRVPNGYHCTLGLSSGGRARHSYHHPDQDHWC

Substance	effect on CaV2.2-mediated ion currents (control blocker) (CaV2.2 channel)	change in voltage-dependent activation of the CaV2.2 channel (activation curve) (CaV2.2 channel)	effect on CaV2.2-mediated ion current (CaV2.2 channel)	reduction in the ion current at all tested voltages (current-to-voltage plot) (CaV2.2 channel)	reversibility of inhibition of CaV2.2 current (CaV2.2 channel)	voltage dependency of activation of the CaV1.2 channel (CaV1.2 channel)	effect on CaV1.2-mediated ion current (CaV1.2 channel; pulses -90 mV to +10 mV)
omega-conotoxin [reference compound]	interrupted	–	–	–	–	–	–
rprtrlhthrnr ([dR][dP][dR][dT][dR][dL][dH][dT][dH][dR][dN][dR]) [D3]	–	not accompanied by a change in voltage-dependent activation of the channel	significant reduction in the ion current; also recorded: blocks the CaV2.2 channel	up to 54%	reversible	–	–
ptlhthnrrrrr ([dP][dT][dL][dH][dT][dH][dN][dR][dR][dR][dR][dR]) [RD2]	–	not accompanied by a change in voltage-dependent activation of the channel	significant reduction in the ion current; also recorded: blocks the CaV2.2 channel	up to 55%	–	not affected	remained virtually unchanged; also recorded: insensitive
